Assays:
HLA-A*11:01 = assay: IEDB peptide-MHC binding, purified MHC/competitive/radioactivity; filed as Kd, often an IC50 or EC50 that approximates it; ≥ and ≤ were set here for values at or beyond the usual limits of such assays; conditions: source organism: Vaccinia virus WR
HLA-A*33:01 = assay: as above; conditions: source organism: Vaccinia virus WR
HLA-B*15:01 = assay: as above
HLA-B*15:03 = assay: as above
HLA-A*68:01 = assay: as above; conditions: source organism: Vaccinia virus WR
HLA-A*32:01 = assay: as above
HLA-A*03:01 [1] = assay: as above; conditions: source organism: Vaccinia virus WR
HLA-B*08:01 = assay: as above
HLA-A*31:01 = assay: as above; conditions: source organism: Vaccinia virus WR
HLA-A*30:01 = assay: as above
HLA-A*01:01 = assay: IEDB peptide-MHC binding, purified MHC/direct/fluorescence; filed as Kd, often an IC50 or EC50 that approximates it; ≥ and ≤ were set here for values at or beyond the usual limits of such assays; conditions: source organism: Orthohantavirus negraense
HLA-A*68:02 = assay: as above; conditions: source organism: Orthohantavirus tulaense
HLA-B*51:01 = assay: IEDB peptide-MHC binding, purified MHC/competitive/fluorescence; filed as Kd, often an IC50 or EC50 that approximates it; ≥ and ≤ were set here for values at or beyond the usual limits of such assays; conditions: source organism: Orthohantavirus tulaense
HLA-B*27:03 = assay: as above; conditions: source organism: Orthohantavirus tulaense
HLA-B*46:01 = assay: as above; conditions: source organism: Orthohantavirus tulaense
HLA-B*15:17 = assay: as above; conditions: source organism: Orthohantavirus tulaense
HLA-B*57:01 = assay: as above; conditions: source organism: Orthohantavirus tulaense
HLA-A*69:01 = assay: as above; conditions: source organism: Orthohantavirus tulaense
HLA-B*39:01 = assay: as above; conditions: source organism: Orthohantavirus tulaense
HLA-A*03:01 [2] = assay: as above; conditions: source organism: Orthohantavirus tulaense
HLA-A*26:01 = assay: as above; conditions: source organism: Orthohantavirus tulaense
[3] = source organism: Vaccinia virus WR
[4] = source organism: Vaccinia virus Copenhagen

KAFNHASVK
Kd (HLA-A*11:01): 9.31 nM
Kd (HLA-A*33:01): ≥ 47700 nM
Kd (HLA-B*15:01; [3]): 462 nM
Kd (HLA-B*15:03; [3]): 282 nM
Kd (HLA-A*68:01): 17.6 nM
Kd (HLA-A*32:01; [3]): 3640 nM
Kd (HLA-A*03:01 [1]): 6.13 nM
Kd (HLA-B*08:01; [3]): 751 nM
Kd (HLA-A*31:01): 29.7 nM
Kd (HLA-A*30:01; [3]): 34.7 nM

FMSRKLHRY
Kd (HLA-A*01:01): 9.5 nM
Kd (HLA-A*68:02): ≥ 20000 nM
Kd (HLA-B*51:01): ≥ 20000 nM
Kd (HLA-B*27:03): ≥ 20000 nM
Kd (HLA-B*46:01): ≥ 20000 nM
Kd (HLA-B*15:17): ≥ 20000 nM
Kd (HLA-B*57:01): ≥ 20000 nM
Kd (HLA-A*69:01): ≥ 20000 nM
Kd (HLA-B*39:01): ≥ 20000 nM
Kd (HLA-A*03:01 [2]): 8000 nM
Kd (HLA-A*26:01): ≥ 20000 nM

KTMAVTYEL
Kd (HLA-B*15:01; [4]): 5.51 nM
Kd (HLA-B*15:03; [4]): 34.5 nM
Kd (HLA-A*32:01; [4]): 0.578 nM
Kd (HLA-B*08:01; [4]): 18.7 nM
Kd (HLA-A*30:01; [4]): 10900 nM

Source: the Immune Epitope Database (IEDB)
